Test results published in patent US20090092617A1 (K BENHAVNS UNIVERSITET, published 2009).
Where no end group is shown, it is not given here.

What was measured:
[1] = target: T1, Recombinant protein comprising the whole extracellular part of human ErbB1 (human, UniProt P00533 25-645); test: SPR (BIAcore 2000), peptide dendrimer immobilized, receptor ECD injected; mean ± SEM
T1 construct: extracellular domain; also called EGF receptor; EGFR
Experimental: (§1) Binding analyses were performed with the surface plasmon resonance (SPR)-based biosensor instrument BIAcore2000 (BIAcore AB, Uppsala, Sweden), at 25° C. using ready-made HBS-EP buffer (BIAcore AB) as running buffer. Peptides were immobilized on the surface of a CM5 sensor chip (BIAcore AB) using an amine coupling kit (Biosensor AB, Uppsala, Sweden) according to the manufacturer's instructions, at a flow rate of 5 μl/min. Briefly, carboxyl groups on the sensor chip surface were activated by injection of 35 μl activation solution followed by injection of peptide (50 μg/ml peptide in HBS-EP buffer, pH 7.4) until the desired level of immobilized peptide was reached. Unreacted peptide was washed out and unreacted activated groups were blocked by the injection of 35 μl 1 M ethanolamine. The final immobilization response was app. 7000-9000 resonance units (RU). […] ErbB receptor proteins were injected at various concentrations at a flow rate of 20 μl/min, and binding to the peptides immobilized on the chip was measured in real-time. […] Data were analyzed by nonlinear curve fitting using the manufacturer' software. […]
(§2) The binding of three Inherbin peptides to all four members of the ErbB receptor family was determined using surface plasmon resonance (SPR) binding analysis (table 1).

[2] = target: T2, Human ErbB4 extracellular part fused to Fc of human IgG1 (human, UniProt Q15303 26-651); test: SPR (BIAcore 2000), peptide immobilized on CM5 chip, receptor protein injected
T2 construct: extracellular domain; also called ErbB4-Fc chimeric protein; not shown: Fc region of human IgG1
T2 sequence (looked up): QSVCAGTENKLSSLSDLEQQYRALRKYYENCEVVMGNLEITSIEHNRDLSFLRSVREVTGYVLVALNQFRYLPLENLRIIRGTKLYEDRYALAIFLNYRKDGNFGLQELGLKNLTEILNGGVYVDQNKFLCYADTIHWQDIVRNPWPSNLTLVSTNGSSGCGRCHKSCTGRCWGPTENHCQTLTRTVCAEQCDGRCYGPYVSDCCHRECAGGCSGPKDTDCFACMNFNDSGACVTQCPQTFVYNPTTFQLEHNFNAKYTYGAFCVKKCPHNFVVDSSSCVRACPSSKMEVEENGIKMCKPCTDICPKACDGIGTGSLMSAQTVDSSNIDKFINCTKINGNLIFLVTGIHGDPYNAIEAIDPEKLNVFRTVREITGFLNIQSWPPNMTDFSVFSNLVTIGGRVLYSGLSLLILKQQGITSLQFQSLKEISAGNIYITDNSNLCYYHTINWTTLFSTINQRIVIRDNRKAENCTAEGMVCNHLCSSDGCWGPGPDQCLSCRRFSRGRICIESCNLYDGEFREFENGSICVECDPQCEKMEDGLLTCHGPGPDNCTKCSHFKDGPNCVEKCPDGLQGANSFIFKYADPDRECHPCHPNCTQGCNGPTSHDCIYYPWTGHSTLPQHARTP
Experimental: (§3) Binding analyses were performed with the surface plasmon resonance (SPR)-based biosensor instrument BIAcore2000 (BIAcore AB, Uppsala, Sweden), at 25° C. using ready-made HBS-EP buffer (BIAcore AB) as running buffer. Peptides were immobilized on the surface of a CM5 sensor chip (BIAcore AB) using an amine coupling kit (Biosensor AB, Uppsala, Sweden) according to the manufacturer's instructions, at a flow rate of 5 μl/min. Briefly, carboxyl groups on the sensor chip surface were activated by injection of 35 μl activation solution followed by injection of peptide (50 μg/ml peptide in HBS-EP buffer, pH 7.4) until the desired level of immobilized peptide was reached. Unreacted peptide was washed out and unreacted activated groups were blocked by the injection of 35 μl 1 M ethanolamine. The final immobilization response was app. 7000-9000 resonance units (RU). A reference surface was generated simultaneously under the same conditions but without peptide injection and used as a blank chip control. ErbB receptor proteins were injected at various concentrations at a flow rate of 20 μl/min, and binding to the peptides immobilized on the chip was measured in real-time. The curve corresponding to the difference between signals on flow cells with immobilized peptide and the signal on the blank flow cell was used for analysis. Each sensorgram consists of an association phase (the first 320 seconds), reflecting binding of the injected receptor to the peptide, and a dissociation phase (app. 300 seconds), during which running buffer is passed over the chip and the bound receptor is being washed off. Data were analyzed by nonlinear curve fitting using the manufacturer' software. The recombinant protein comprising the whole extracellular part of human ErbB1 (also termed the EGF receptor, EGFR) was purchased from Research Diagnostics (Concord, Mass., USA). Recombinant proteins comprising the Fc region of human IgG₁ and the Fc protein fused to the extracellular parts of human ErbB2, ErbB3 or ErbB4 were purchased from R&D Systems Europe (Abingdon, UK).
as §2

[3] = target: T3, Human ErbB2 extracellular part fused to Fc of human IgG1 (human, UniProt P04626 23-652); test: as above
T3 construct: extracellular domain; also called ErbB2-Fc chimeric protein; not shown: Fc region of human IgG1
Experimental: as §3, §2

[4] = target: T4, Human ErbB3 extracellular part fused to Fc of human IgG1 (human, UniProt P21860 20-643); test: SPR (BIAcore 2000), peptide dendrimer immobilized, receptor ECD-Fc injected; mean ± SEM
T4 construct: extracellular domain; also called ErbB3-Fc chimeric protein; not shown: Fc region of human IgG1
Experimental: as §3, §2

[5] = target: T1, Recombinant protein comprising the …; test: SPR (BIAcore 2000), peptide dendrimer immobilized, receptor ECD injected; mean ± SEM, SEM 4.9e-9 in r8c2
Experimental: as §1, §2

[6] = target: T4, Human ErbB3 extracellular part fused to …; test: SPR (BIAcore 2000), peptide dendrimer immobilized, receptor ECD-Fc injected; mean ± SEM, SEM 8e-9 in r11c2
Experimental: as §1, §2

[7] = target: T2, Human ErbB4 extracellular part fused to …; test: SPR (BIAcore 2000), peptide dendrimer immobilized, receptor ECD-Fc injected; mean ± SEM
Experimental: as §3, §2

[8] = target: T3, Human ErbB2 extracellular part fused to …; test: as above
Experimental: as §3, §2

T4 sequence (P21860 20-643): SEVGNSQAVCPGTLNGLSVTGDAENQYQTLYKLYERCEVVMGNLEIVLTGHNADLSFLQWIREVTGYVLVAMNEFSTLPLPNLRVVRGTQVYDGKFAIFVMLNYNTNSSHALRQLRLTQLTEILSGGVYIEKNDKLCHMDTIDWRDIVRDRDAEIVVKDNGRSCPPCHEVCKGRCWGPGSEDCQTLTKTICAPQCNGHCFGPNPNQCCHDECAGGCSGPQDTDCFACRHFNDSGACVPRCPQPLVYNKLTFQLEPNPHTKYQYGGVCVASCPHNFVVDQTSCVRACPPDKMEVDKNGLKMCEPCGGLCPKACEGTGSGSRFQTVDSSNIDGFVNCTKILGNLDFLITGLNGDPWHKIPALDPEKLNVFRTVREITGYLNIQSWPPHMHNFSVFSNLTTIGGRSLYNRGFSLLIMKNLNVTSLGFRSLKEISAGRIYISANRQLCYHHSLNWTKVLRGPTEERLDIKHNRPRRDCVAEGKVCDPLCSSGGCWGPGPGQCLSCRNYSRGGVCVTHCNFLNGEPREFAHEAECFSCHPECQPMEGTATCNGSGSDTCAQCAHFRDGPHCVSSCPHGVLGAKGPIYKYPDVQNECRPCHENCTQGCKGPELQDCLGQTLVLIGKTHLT

LVYNKLTFQLEPNPHTK (also: tetrameric dendrimer: four monomers coupled to a lysine backbone, also called 3DL) [Inherbin3d, tetrameric dendrimer of the Inherbin3 peptide] was tested, and the Kd [1] was 70 nM, the binding result [2] was “no binding (tested: 32 µM (concentration given for FIG. 1))” and the binding result [3] was “no binding (tested: 32 µM (concentration given for FIG. 1))”. It also gave a Kd [4] of 17.9 nM.

B1: Inherbin1 peptide, tetrameric dendrimer (peptide)
peptide: MLYNPTTYQMDVNPEGK
modifications: also: tetrameric dendrimer: four monomers coupled to a lysine backbone
notes: It was immobilized on a CM5 chip by amine coupling; also called 1DL
In the case of B1, the Kd [5] is reported as 13.6 nM, the binding result [2] is reported as “no binding” and the binding result [3] is reported as “no binding”. For the same binder, the Kd [6] was 49 nM.

Work on FVYNPTTFQLEMNFNAK (also: tetrameric dendrimer: four monomers coupled to a lysine backbone, also called 4DL) [Inherbin4 peptide, tetrameric dendrimer] yielded a Kd [1] of 297 nM, a Kd [7] of 90.4 nM and a Kd [8] of 43 nM. It also gave a Kd [4] of 19.9 nM.
